Here are results for 14 molecules from PMC9768791 (2022).

Assay in all cases: activation reporter or marker
Test [1] deals with T1, KBTBD3p.T293A peptide on HLA-B*35:01 (human).
T1 peptide: RPSTAEKYIF

Test [2] has as its target T2, MED12Lp.T462K peptide on HLA-C*07:02 (human).
T2 peptide: SRVLHKLEV

Test [3] deals with T3, PAPSS1p.Q144H peptide on HLA-C*07:02 (human).
T3 peptide: ARHIHEGASL

Test [4] has as its target T4, FCGRTp.A241T peptide on HLA-C*06:02 (human).
T4 peptide: LRFLRNGLT

In test [5] the target is T5, MAN2A2p.R877W peptide on HLA-C*04:01 (human).
T5 peptide: IWDYVNKELA

For test [6], the target named is T6, WDFY3p.L512H peptide on HLA-A*11:01 (human).
T6 peptide: VMVNHLHKY

In test [7] the target is T7, SDK1p.S1290L peptide on HLA-A*02:01 (human).
T7 peptide: SLTQILLTWT

The target in test [8] is T8, USP34p.S2706F peptide on HLA-C*07:02 (human).
T8 peptide: FRSTRFLHI

Test [9] has as its target T9, CDADC1p.R148Q peptide on HLA-A*24:02 (human).
T9 peptide: AGVNQISYW

The target of test [10] is T10, ACEp.V535G peptide on HLA-B*57:01 (human).
T10 peptide: VSFGLQFQF

The target in test [11] is T11, RASA3p.A654V peptide on HLA-A*02:01 (human).
T11 peptide: FQVIQPERV

Test [12] deals with T12, BRPF1p.L634F peptide on HLA-A*24:02 (human).
T12 peptide: EMQLTPFFI

Test [13] addresses T13, ETNK1p.Q233L peptide on HLA-C*07:01 (human).
T13 peptide: FRLIARLL

In test [14] the target is T14, PRCCp.V145L peptide on HLA-C*07:01 (human).
T14 peptide: KRKEPLKI

B1: TCR1364 (TCR, V domains shown)
Valpha: GQNIDQPTEMTATEGAIVQINCTYQTSGFNGLFWYQQHAGEAPTFLSYNVLDGLEEKGRFSSFLSRSKGYSYLLLKELQMKDSASYLCAVKGDYKLSFGAGTTVTVRA
Vbeta: DTGVSQNPRHKITKRGQNVTFRCDPISEHNRLYWYRQTLGQGPEFLTYFQNEAQLEKSRLLSDRFSAERPKGSFSTLEIQRTEQGDSAMYLCASSDRSYNEQFFGPGTRLTVL
B1: the binding result in [1] is “recognises”.

B2: TCR915 (TCR, V domains shown)
Valpha: AQKVTQAQTEISVVEKEDVTLDCVYETRDTTYYLFWYKQPPSGELVFLIRRNSFDEQNEISGRYSWNFQKSTSSFNFTITASQVVDSAVYFCALSDHNTDKLIFGTGTRLQVFP
Vbeta: NAGVTQTPKFRILKIGQSMTLQCTQDMNHNYMYWYRQDPGMGLKLIYYSVGAGITDKGEVPNGYNVSRSTTEDFPLRLELAAPSQTSVYFCASISDSYNEQFFGPGTRLTVL
Turning to B2, the binding result in test [2] is “recognises”.

B3: TCR952 (TCR, V domains shown)
Valpha: SQQGEEDPQALSIQEGENATMNCSYKTSINNLQWYRQNSGRGLVHLILIRSNEREKHSGRLRVTLDTSKKSSSLLITASRAADTASYFCATDEVGDMRFGAGTRLTVKP
Vbeta: EPEVTQTPSHQVTQMGQEVILRCVPISNHLYFYWYRQILGQKVEFLVSFYNNEISEKSEIFDDQFSVERPDGSNFTLKIRSTKLEDSAMYFCAISGSLYNEQFFGPGTRLTVL
Consider B3, for which the binding result in test [3] is listed as “recognises”.

B4: TCR1059 (TCR, V domains shown)
Valpha: SQQGEEDPQALSIQEGENATMNCSYKTSINNLQWYRQNSGRGLVHLILIRSNEREKHSGRLRVTLDTSKKSSSLLITASRAADTASYFCATDEGNFVFGPGTRLSVLP
Vbeta: NAGVTQTPKFQVLKTGQSMTLQCAQDMNHEYMSWYRQDPGMGLRLIHYSVGAGITDQGEVPNGYNVSRSTTEDFPLRLLSAAPSQTSVYFCASSPGQRETQYFGPGTRLLVL
On to B4, for which the binding result in [4] is on record as “recognises”.

B5: TCR721 (TCR, V domains shown)
Valpha: AQKVTQAQTEISVVEKEDVTLDCVYETRDTTYYLFWYKQPPSGELVFLIRRNSFDEQNEISGRYSWNFQKSTSSFNFTITASQVVDSAVYFCALSEATGFGNEKLTFGTGTRLTIIP
Vbeta: DAGITQSPRHKVTETGTPVTLRCHQTENHRYMYWYRQDPGHGLRLIHYSYGVKDTDKGEVSDGYSVSRSKTEDFLLTLESATSSQTSVYFCAISDPRDSYEQYFGPGTRLTVT
For the molecule B5, the binding result in test [5] is reported as “recognises”.

B6: TCR720 (TCR, V domains shown)
Valpha: LAKTTQPISMDSYEGQEVNITCSHNNIATNDYITWYQQFPSQGPRFIIQGYKTKVTNEVASLFIPADRKSSTLSLPRVSLSDTAVYYCLVIEAGNNRKLIWGLGTSLAVNP
Vbeta: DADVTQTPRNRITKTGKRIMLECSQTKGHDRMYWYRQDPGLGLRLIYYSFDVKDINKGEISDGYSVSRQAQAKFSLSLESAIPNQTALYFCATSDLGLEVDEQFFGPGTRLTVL
Consider B6, for which, in test [6], the binding result is “recognises”.

B7: TCR1036 (TCR, V domains shown)
Valpha: RKEVEQDPGPFNVPEGATVAFNCTYSNSASQSFFWYRQDCRKEPKLLMSVYSSGNEDGRFTAQLNRASQYISLLIRDSKLSDSATYLCVVNMYNQGGKLIFGQGTELSVKP
Vbeta: NAGVTQTPKFQVLKTGQSMTLQCAQDMNHEYMSWYRQDPGMGLRLIHYSVGAGITDQGEVPNGYNVSRSTTEDFPLRLLSAAPSQTSVYFCASSYSGPNYEQYFGPGTRLTVT
In the case of B7, the binding result in test [7] is reported as “recognises”.

B8: TCR903 (TCR, V domains shown)
Valpha: AQKVTQAQTEISVVEKEDVTLDCVYETRDTTYYLFWYKQPPSGELVFLIRRNSFDEQNEISGRYSWNFQKSTSSFNFTITASQVVDSAVYFCALSEETDRGSTLGRLYFGRGTQLTVWP
Vbeta: DTAVSQTPKYLVTQMGNDKSIKCEQNLGHDTMYWYKQDSKKFLKIMFSYNNKELIINETVPNRFSPKSPDKAHLNLHINSLELGDSAVYFCASSQDGGFEQFFGPGTRLTVL
For B8, the binding result in test [8] is “recognises”.

B9: TCR1057 (TCR, V domains shown)
Valpha: GENVEQHPSTLSVQEGDSAVIKCTYSDSASNYFPWYKQELGKRPQLIIDIRSNVGEKKDQRIAVTLNKTAKHFSLHITETQPEDSAVYFCAASRGPAGGTSYGKLTFGQGTILTVHP
Vbeta: DTEVTQTPKHLVMGMTNKKSLKCEQHMGHRAMYWYKQKAKKPPELMFVYSYEKLSINESVPSRFSPECPNSSLLNLHLHALQPEDSALYLCASSQDAWWLSQPQHFGDGTRLSIL
As for B9, the binding result in test [9] is “recognises”.

B10: TCR901 (TCR, V domains shown)
Valpha: QKEVEQDPGPLSVPEGAIVSLNCTYSNSAFQYFMWYRQYSRKGPELLMYTYSSGNKEDGRFTAQVDKSSKYISLFIRDSQPSDSATYLCAMTRGGGGNKLTFGTGTQLKVEL
Vbeta: NAGVTQTPKFRVLKTGQSMTLLCAQDMNHEYMYWYRQDPGMGLRLIHYSVGEGTTAKGEVPDGYNVSRLKKQNFLLGLESAAPSQTSVYFCASSYGGPEQFFGPGTRLTVL
On to B10, for which the binding result in test [10] is on record as “recognises”.

B11: TCR1312 (TCR, V domains shown)
Valpha: QKEVEQNSGPLSVPEGAIASLNCTYSDRGSQSFFWYRQYSGKSPELIMFIYSNGDKEDGRFTAQLNKASQYVSLLIRDSQPSDSATYLCAVNRAGGSYIPTFGRGTSLIVHP
Vbeta: DAGVIQSPRHEVTEMGQEVTLRCKPISGHDYLFWYRQTMMRGLELLIYFNNNVPIDDSGMPEDRFSAKMPNASFSTLKIQPSEPRDSAVYFCASSQGQGVLGMKKLFFGSGTQLSVL
For the molecule B11, in test [11], the binding result is “recognises”.

B12: TCR955 (TCR, V domains shown)
Valpha: AQTVTQSQPEMSVQEAETVTLSCTYDTSESDYYLFWYKQPPSRQMILVIRQEAYKQQNATENRFSVNFQKAAKSFSLKISDSQLGDAAMYFCAYRRRNSGYALNFGKGTSLLVTP
Vbeta: DAGVTQSPTHLIKTRGQQVTLRCSPKSGHDTVSWYQQALGQGPQFIFQYYEEEERQRGNFPDRFSGHQFPNYSSELNVNALLLGDSALYLCASSLRVWSSYEQYFGPGTRLTVT
For B12, the binding result in [12] is reported as “recognises”.

B13: TCR1285 (TCR, V domains shown)
Valpha: DAKTTQPPSMDCAEGRAANLPCNHSTISGNEYVYWYRQIHSQGPQYIIHGLKNNETNEMASLIITEDRKSSTLILPHATLRDTAVYYCIVRLAPYSGNTPLVFGKGTRLSVIA
Vbeta: DAGVTQSPTHLIKTRGQQVTLRCSPKSGHDTVSWYQQALGQGPQFIFQYYEEEERQRGNFPDRFSGHQFPNYSSELNVNALLLGDSALYLCASISGFMGLMNTEAFFGQGTRLTVV
Regarding B13, the binding result in [13] was “recognises”.

B14: TCR775 (TCR, V domains shown)
Valpha: GQNIDQPTEMTATEGAIVQINCTYQTSGFNGLFWYQQHAGEAPTFLSYNVLDGLEEKGRFSSFLSRSKGYSYLLLKELQMKDSASYLCAAHSGGYQKVTFGTGTKLQVIP
Vbeta: EPEVTQTPSHQVTQMGQEVILRCVPISNHLYFYWYRQILGQKVEFLVSFYNNEISEKSEIFDDQFSVERPDGSNFTLKIRSTKLEDSAMYFCASSEDEQEYSYEQYFGPGTRLTVT
As to B14, the binding result in test [14] is “recognises”.
